Target: HLA-A*02:01 (Homo sapiens, UniProt P04439, D140Y/D185E/D98H/E176V/E277Q/G131W/G231S/I119V/I121R/I166T/I218V/L300P/L318F/N151K/N90K/P208A/P217A/Q86G/Q94H/R138H/R169H/T345S)
Assay: MHC binding assay (UV-ligand exchange, beta2m ELISA)
Conditions: binding to HLA-A*02:01 ranged by peptide exchange yield (UV-ligand exchange, β2m ELISA)
Outline: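 Stabilised complexes were quantified via their β2m light chain: 100-fold-diluted monomers bound to streptavidin plates, then HRP anti-β2m at 2 ug/ml for 1 h at 37° C., TMB read at 450 nm. The value is the yield of UV-induced exchange of a photocleavable peptide for the candidate.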

Peptide exchange | Substance
“+++” (≥50 = +++) | 13 (YLMDESLNL; listed as Homo sapiens) [compound 13]
“+++” (≥50 = +++) | 551 (KLYESLLPFA; listed as Homo sapiens) [compound 551]
“+++” (≥50 = +++) | 616 (VLIDEVESL; listed as Homo sapiens) [compound 616]
“+++” (≥50 = +++) | 187 (RQISIRGIVGV; listed as Homo sapiens) [compound 187]
“++++” (≥75% = ++++) | 371 (FLQAHLHTA; listed as Homo sapiens) [compound 371]
“+++” (≥50 = +++) | 312 (IISDLTIAL; listed as Homo sapiens) [compound 312]
“+++” (≥50 = +++) | 588 (SLLPLSHLV; listed as Homo sapiens) [compound 588]
“+++” (≥50 = +++) | 542 (RVWDISTVSSV; listed as Homo sapiens) [compound 542]
“+++” (≥50 = +++) | 456 (LLIGHLERV; listed as Homo sapiens) [compound 456]
“+++” (≥50 = +++) | 502 (RLLAQVPGL; listed as Homo sapiens) [compound 502]
“++++” (≥75% = ++++) | 51 (LLPDLEFYV; listed as Homo sapiens) [compound 51]
“+++” (≥50 = +++) | 378 (ALGYFVPYV; listed as Homo sapiens) [compound 378]
“+++” (≥50 = +++) | 497 (GLLEKLTAI; listed as Homo sapiens) [compound 497]
“+++” (≥50 = +++) | 101 (ILVGGGALATV; listed as Homo sapiens) [compound 101]
“+++” (≥50 = +++) | 106 (LLYDAVHIVSV; listed as Homo sapiens) [compound 106]
“++” (≥20% = ++) | 115 (AIAGAGILYGV; listed as Homo sapiens) [compound 115]
“++” (≥20% = ++) | 372 (TMLLNIPLV; listed as Homo sapiens) [compound 372]
“+++” (≥50 = +++) | 307 (ALPVSLPQI; listed as Homo sapiens) [compound 307]
“++” (≥20% = ++) | 579 (NLMEMVAQL; listed as Homo sapiens) [compound 579]
“++++” (≥75% = ++++) | 62 (VLLDVSAGQLLM; listed as Homo sapiens) [compound 62]
“+++” (≥50 = +++) | 288 (NLINEINGV; listed as Homo sapiens) [compound 288]
“+++” (≥50 = +++) | 132 (LLVEQPPLAGV; listed as Homo sapiens) [compound 132]
“+++” (≥50 = +++) | 465 (QLCDLNAEL; listed as Homo sapiens) [compound 465]
“+++” (≥50 = +++) | 309 (GLFDGVPTTA; listed as Homo sapiens) [compound 309]
“+++” (≥50 = +++) | 401 (ILLDDTGLAYI; listed as Homo sapiens) [compound 401]
“+++” (≥50 = +++) | 457 (SLLPGNLVEKV; listed as Homo sapiens) [compound 457]

Peptide exchange | Substance
“+++” (≥50 = +++) | 598 (FLFPHSVLV; listed as Homo sapiens) [compound 598]
“+++” (≥50 = +++) | 12 (SLWPDPMEV; listed as Homo sapiens) [compound 12]
“++” (≥20% = ++) | 80 (FLYDNLVESL; listed as Homo sapiens) [compound 80]
“++++” (≥75% = ++++) | 438 (KLLPLAGLYL; listed as Homo sapiens) [compound 438]
“+++” (≥50 = +++) | 357 (SMHDLVLQV; listed as Homo sapiens) [compound 357]
“+++” (≥50 = +++) | 454 (KLPPPPPQA; listed as Homo sapiens) [compound 454]
“++” (≥20% = ++) | 231 (FLSPQQPPLLL; listed as Homo sapiens) [compound 231]
“++” (≥20% = ++) | 431 (SLVNVVPKL; listed as Homo sapiens) [compound 431]
“++” (≥20% = ++) | 379 (IMEGTLTRV; listed as Homo sapiens) [compound 379]
“+++” (≥50 = +++) | 618 (VLFDSESIGIYV; listed as Homo sapiens) [compound 618]
“+++” (≥50 = +++) | 264 (SLQEQLHSV; listed as Homo sapiens) [compound 264]
“+++” (≥50 = +++) | 184 (YLMDINGKMWL; listed as Homo sapiens) [compound 184]
“+++” (≥50 = +++) | 134 (YLQELIFSV; listed as Homo sapiens) [compound 134]
“++” (≥20% = ++) | 355 (SIQQSIERLLV; listed as Homo sapiens) [compound 355]
“+++” (≥50 = +++) | 592 (RLLSAAENFL; listed as Homo sapiens) [compound 592]
“+++” (≥50 = +++) | 41 (SLMPHIPGL; listed as Homo sapiens) [compound 41]
“++” (≥20% = ++) | 376 (AMFESSQNVLL; listed as Homo sapiens) [compound 376]
“++” (≥20% = ++) | 229 (RLPGPLGTV; listed as Homo sapiens) [compound 229]
“++++” (≥75% = ++++) | 177 (YLLPEEYTSTL; listed as Homo sapiens) [compound 177]
“+++” (≥50 = +++) | 98 (LIIDQADIYL; listed as Homo sapiens) [compound 98]
“+++” (≥50 = +++) | 223 (ALLENIALYL; listed as Homo sapiens) [compound 223]
“+++” (≥50 = +++) | 162 (YQQAQVPSV; listed as Homo sapiens) [compound 162]
“++++” (≥75% = ++++) | 7 (SLVGLLLYL; listed as Homo sapiens) [compound 7]
“+++” (≥50 = +++) | 306 (ALVNVQIPL; listed as Homo sapiens) [compound 306]
“+++” (≥50 = +++) | 246 (LLWEVVSQL; listed as Homo sapiens) [compound 246]
“+++” (≥50 = +++) | 544 (LLWDVPAPSL; listed as Homo sapiens) [compound 544]

Peptide exchange | Substance
“+++” (≥50 = +++) | 606 (ALWETEVYI; listed as Homo sapiens) [compound 606]
“+++” (≥50 = +++) | 96 (YIFTDNPAAV; listed as Homo sapiens) [compound 96]
“++” (≥20% = ++) | 275 (YLVYILNEL; listed as Homo sapiens) [compound 275]
“+++” (≥50 = +++) | 617 (ALMYESEKVGV; listed as Homo sapiens) [compound 617]
“++” (≥20% = ++) | 447 (QLVPALAKV; listed as Homo sapiens) [compound 447]
“+++” (≥50 = +++) | 492 (SLFDGFADGLGV; listed as Homo sapiens) [compound 492]
“++” (≥20% = ++) | 218 (SALEELVNV; listed as Homo sapiens) [compound 218]
“++” (≥20% = ++) | 43 (VLSSLEINI; listed as Homo sapiens) [compound 43]
“++++” (≥75% = ++++) | 576 (ILLNNSGQIKL; listed as Homo sapiens) [compound 576]
“+++” (≥50 = +++) | 103 (TLAEEVVAL; listed as Homo sapiens) [compound 103]
“++++” (≥75% = ++++) | 552 (GLLDLPFRVGV; listed as Homo sapiens) [compound 552]
“+++” (≥50 = +++) | 330 (QLALKVEGV; listed as Homo sapiens) [compound 330]
“+++” (≥50 = +++) | 359 (YLLPESVDL; listed as Homo sapiens) [compound 359]
“++++” (≥75% = ++++) | 168 (KILDADIQL; listed as Homo sapiens) [compound 168]
“++” (≥20% = ++) | 191 (LLQEGQALEYV; listed as Homo sapiens) [compound 191]
“+++” (≥50 = +++) | 622 (RLLGEEVVRVLQA; listed as Homo sapiens) [compound 622]
“+++” (≥50 = +++) | 147 (SLLEAVSFL; listed as Homo sapiens) [compound 147]
“++” (≥20% = ++) | 209 (KLIESKHEV; listed as Homo sapiens) [compound 209]
“+++” (≥50 = +++) | 397 (YLFGERLLEC; listed as Homo sapiens) [compound 397]
“++” (≥20% = ++) | 375 (SLTETIEGV; listed as Homo sapiens) [compound 375]
“+++” (≥50 = +++) | 244 (SLFGGTEITI; listed as Homo sapiens) [compound 244]
“++++” (≥75% = ++++) | 89 (YILPTETIYV; listed as Homo sapiens) [compound 89]
“++” (≥20% = ++) | 580 (LLMENAERV; listed as Homo sapiens) [compound 580]
“+++” (≥50 = +++) | 496 (FLVEKQPPQV; listed as Homo sapiens) [compound 496]
“+++” (≥50 = +++) | 297 (VLADIELAQA; listed as Homo sapiens) [compound 297]
“+++” (≥50 = +++) | 298 (VMITKLVEV; listed as Homo sapiens) [compound 298]

Source: patent US10738094B2, “Peptides and combination of peptides for use in immunotherapy against ovarian cancer and other cancers” (immatics biotechnologies GmbH, priority 2015, dated 2020)
